# Data published in IntAct's records for PubMed 24165795.
# B1: Phosphatidylinositol 4,5-bisphosphate 3-kinase catalytic subunit delta isoform (Homo sapiens), O00329 (parent)
# chain: MPPGVDCPMEFWTKEENQSVVVDFLLPTGVYLNFPVSRNANLSTIKQLLWHRAQYEPLFHMLSGPEAYVFTCINQTAEQQELEDEQRRLCDVQPFLPVLRLVAREGDRVKKLINSQISLLIGKGLHEFDSLCDPEVNDFRAKMCQFCEEAAARRQQLGWEAWLQYSFPLQLEPSAQTWGPGTLRLPNRALLVNVKFEGSEESFTFQVSTKDVPLALMACALRKKATVFRQPLVEQPEDYTLQVNGRHEYLYGSYPLCQFQYICSCLHSGLTPHLTMVHSSSILAMRDEQSNPAPQVQKPRAKPPPIPAKKPSSVSLWSLEQPFRIELIQGSKVNADERMKLVVQAGLFHGNEMLCKTVSSSEVSVCSEPVWKQRLEFDINICDLPRMARLCFALYAVIEKAKKARSTKKKSKKADCPIAWANLMLFDYKDQLKTGERCLYMWPSVPDEKGELLNPTGTVRSNPNTDSAAALLICLPEVAPHPVYYPALEKILELGRHSECVHVTEEEQLQLREILERRGSGELYEHEKDLVWKLRHEVQEHFPEALARLLLVTKWNKHEDVAQMLYLLCSWPELPVLSALELLDFSFPDCHVGSFAIKSLRKLTDDELFQYLLQLVQVLKYESYLDCELTKFLLDRALANRKIGHFLFWHLRSEMHVPSVALRFGLILEAYCRGSTHHMKVLMKQGEALSKLKALNDFVKLSSQKTPKPQTKELMHLCMRQEAYLEALSHLQSPLDPSTLLAEVCVEQCTFMDSKMKPLWIMYSNEEAGSGGSVGIIFKNGDDLRQDMLTLQMIQLMDVLWKQEGLDLRMTPYGCLPTGDRTGLIEVVLRSDTIANIQLNKSNMAATAAFNKDALLNWLKSKNPGEALDRAIEEFTLSCAGYCVATYVLGIGDRHSDNIMIRESGQLFHIDFGHFLGNFKTKFGINRERVPFILTYDFVHVIQQGKTNNSEKFERFRGYCERAYTILRRHGLLFLHLFALMRAAGLPELSCSKDIQYLKDSLALGKTEEEALKHFRVKFNEALRESWKTKVNWLAHNVSKDNRQ
# Variants of: B1
# Details: with p85a_human PIK3R1, P27986
# p85a_human PIK3R1, P27986, sequence (P27986 whole entry): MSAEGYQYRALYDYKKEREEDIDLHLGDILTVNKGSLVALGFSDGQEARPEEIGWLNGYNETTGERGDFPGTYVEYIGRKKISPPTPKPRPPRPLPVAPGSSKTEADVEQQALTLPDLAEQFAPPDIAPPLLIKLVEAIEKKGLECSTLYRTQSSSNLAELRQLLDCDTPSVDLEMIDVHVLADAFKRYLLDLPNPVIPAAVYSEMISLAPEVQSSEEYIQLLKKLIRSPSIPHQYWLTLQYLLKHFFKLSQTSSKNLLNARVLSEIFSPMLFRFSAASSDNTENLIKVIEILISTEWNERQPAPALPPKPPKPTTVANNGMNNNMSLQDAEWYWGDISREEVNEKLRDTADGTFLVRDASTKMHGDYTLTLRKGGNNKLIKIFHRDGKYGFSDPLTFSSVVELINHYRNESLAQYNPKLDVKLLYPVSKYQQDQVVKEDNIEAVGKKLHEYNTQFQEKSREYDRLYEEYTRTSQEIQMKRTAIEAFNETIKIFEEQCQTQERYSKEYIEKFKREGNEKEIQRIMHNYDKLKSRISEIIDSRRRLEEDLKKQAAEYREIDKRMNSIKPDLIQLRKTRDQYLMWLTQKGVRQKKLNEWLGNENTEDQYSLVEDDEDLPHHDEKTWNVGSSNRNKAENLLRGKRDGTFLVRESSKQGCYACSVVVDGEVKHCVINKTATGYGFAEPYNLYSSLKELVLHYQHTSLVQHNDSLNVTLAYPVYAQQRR
row,Variant,effect of a mutation on the interaction
1,E1021K,with no effect
2,E525K,with no effect
